Measurements reported in patent publication CN113912708A (INST MILITARY MEDICINE ACADEMY MILITARY SCIENCES PLA, dated 2022).

Tests used:
[1] = biological target: MERS-CoV假病毒 (MERS-CoV); assay: cell-based or functional assay
[2] = biological target: MERS-CoV RBD-Fc蛋白 (MERS-CoV (RBD); human (IgG Fc))

B1: 单域重链抗体Nano-Anti-MRBD (VHH)
VHH: QVQLVESGGGLVQPGGSLRLSCAASGFSFIDYAMSWARQAPGKGLEWVSSISPGYGTTYYTDSVKGRFTISRDNAKNMLYLQMNSLKPEDTATYYCAKGSDPFTPGIQRGQGTQVTVSS
- 对MERS-CoV假病毒进入细胞的抑制率 (IC50, luciferase RLU, Huh-7细胞) [1]: 10.7 ng/mL
- EC50 [2]: 0.744 ng/mL
